The values that follow come from patent US9598479B2, “Nanoparticle-peptide compositions” (Midatech Ltd., priority 2011, dated 2017).

Data set [1] in a line: Aggregation and solubilisation of nanoparticle preparations. The note with it: for aggregation of NP after repeat production: 75% methanol in the synthesis stage; for solubility of aggregates in alkali: 300 mM NaOH; for aggregation of NP after production: first production (95% methanol); for solubility of aggregates: water, 10% acetic acid, PBS, DMSO or DMF. The class given is physicochemical. How it is done: The following method was used; 1.5 μmole peptide was dissolved in 2 ml methanol, followed by the addition of 30 μmole GlcC2 in 200 μl methanol, and 116 μl of aqueous gold chloride containing 10 μmole Au. The sample was vortexed for 30 sec, shaken for approximately 5 min and then under rapid vortexing for a total of 30 sec 200 μl of 1M NaBH4 was added, tubes were sealed and then gently shaken for 1.5 h.
Samples were bench spun the supernatant removed and the dark pellet dissolved in 2 ml water, and then transferred to a 10 kDa vivaspin for a total of 4 times 2 ml water washes each of 8 min at 5 Krpm.
Nanoparticles (NPs) were removed from the vivaspins and made up to 500 μl with water, they were then subjected to 15 Krpm bench spin to remove any large aggregates.
NP's 2-5 were produced by a variation using 75% methanol not 95% in the synthesis stage.

In a further data set the test system is LK^b cells. Put plainly: Flow cytometry measure of […] presentation (25.D1.16 antibody). The class given is cell-based, mouse. The settings on record: for processing and presentation of SIINFEKL from GNP, flow cytometric method: LKb cells pulsed 2 h with GNP equivalent to 1, 0.1 or 0.01 ug/mL peptide, FIG. 1A-D. How it is done: (§1) Next, GNPs were pulsed to the equivalent of 1 ug/mL peptide (Green), 0.1 ug/mL (Blue), or 0.01 ug/mL (Red). After two hours, cells were washed, and subjected to (A-D) flow cytometric labelling with 25.D1.16 (Angel) antibody, or (E) combined with B3Z CTL for overnight co-culture. The next day, cells were lysed and Beta-galactosidase activity was measured.
In order to analyze epitope linkage to nanoparticles, we first optimized a readout assay for the presentation of the epitope released from the nanoparticle. For this purpose, […] (SEQ ID NO: 2) presentation in LK^b cells was evaluated. As mentioned earlier, more than one reagent exists. Of the two methods tested, one is flow cytometry-based, while the other is cell-based. The flow cytometry-based method begins with pulsing LK^b cells with differing amounts of […] (SEQ ID NO: 2) peptide. After allowing enough time for peptide binding to surface K^b molecules, cells were washed and incubated with the 25.D1.16 antibody which is specific to the […]:K^b (SEQ ID NO: 2) complex. Next, the cells were secondarily labelled and subjected to flow cytometry analysis using unpulsed cells as the background reading.
LK^b cells were treated with varying amounts of […] (SEQ ID NO: 2) peptides. […] Cells were then washed two times in PBS and incubated for 30 min on ice with FITC-labeled goat anti-mouse IgG secondary antibody (Caltag Laboratories, Burlingham, Calif.). Finally, cells were washed two times with PBS and resuspended in PBS+0.1% BSA for flow cytometry on a Guava EasyCyte Plus Flow Cytometer (Millipore, Billerica, Mass.) and analyzed using the accompanying software.
(§2) To assay […] (SEQ ID NO: 2) presentation using a flow cytometric or cell-based method, we pulsed LK^b cells in a 15 mL conical at 37° C. for 2 hrs. Following this incubation, cells were washed once with PBS and then subjected to detection using flow cytometry or added to B3Z cells at an effector to target ratio of 1:1.
(§3) […] (SEQ ID NO: 2), an epitope derived from ovalbumin that is presented in the context of the murine MHCI molecule H-2 Kb, was measured using two methods. One method utilized a TCR-like antibody termed 25.D1.16, also referred to as “Angel”, that recognize […] (SEQ ID NO: 2)/MHCI complex. In addition, we assessed presentation using the B3Z, […] (SEQ ID NO: 2) peptide specific CTL hybridoma, which expresses β-galactosidase under the NFAT (CTL signaling molecule) promoter, which upon activation express beta-gal measured by a light emitting substrate.

Data set [2] concerns B3Z (OVA peptide specific T cell line). Put plainly: B3Z T cell activation (β-galactosidase) measure of antigen presentation. Format: cell-based, mouse. The note with it: for processing and presentation of SIINFEKL from GNP, CTL-based method: LKb cells pulsed 2 h with GNP equivalent to 1, 0.1 or 0.01 ug/mL peptide, overnight co-culture with B3Z, FIG. 1E. As to the method:
as §1
Another form of epitope-specific antigen presentation is the measurement of T cell activation by the MHCI peptide complex. Here, we used B3Z (OVA peptide specific T cell line), which recognizes […] (SEQ ID NO: 2) the context of K^b. As a convenient measure, this T cell line contains β-galactosidase cloned with the NFAT promoter. Upon peptide recognition and T cell activation, β-galactosidase is expressed and conversion of a detectible substrate serves as an excellent measure of antigen presentation to T cells.
To evaluate this method, we performed a similar experiment as above. LK^b cells were pulsed with […] (SEQ ID NO: 2) peptide, washed, and then co-incubated with B3Z T cell line overnight. The next day, cells were lysed and β-galactosidase was measured using a luminescent substrate. As expected, the resolution of this method was similar to the previous method with the limit of detection at approximately 5 ng/mL.
The […]:Kb-specific T hybridoma (B3Z) (SEQ ID NO: 2) expresses (β-galactosidase upon recognition of peptide-MHC class I complexes and has been described previously (3, 6). T cell hybridomas were maintained in complete RPMI plus 10% FCS and 0.05 mM 2-ME. Activation was measured using the luminescent substrate Galactolight Plus (Applied Biosystems, Foster City, Calif.) according to the manufacturer's instructions. Light intensity was measured using a TopCount NXT plate reader (Perkin Elmer, Waltham, Mass.).
as §2, §3

Numbered stars: 1 amine (or outer) side, 2 acyl side, 3 side chain; on linkers, the order of the positions; unused ones are H or OH. Square brackets hold non-standard residues; d marks the D form. Ends that are not written are not given here. Cysteamide = C(CS[*:3])N[*:1]; Mpa = O=C(O)CCS

Turning to “NP2: gold nanoparticle with GlcC2 ligands and peptide ligand 2, SIINFEKL-N—(CH2)2-SH”, the “aggregation of NP after repeat production” value in data set [1] is “‘normal’ NP”.
On to “GNP 8: gold nanoparticle with GlcC2 ligands and peptide ligand 8, HS(CH2)2-CONH-FLAAYSIINFEKL ([Mpa]FLAAYSIINFEKL; numbers in words are those of the source; also: on gold nanoparticle with GlcC2 ligands)”, for which the “processing and presentation of SIINFEKL from GNP, flow cytometric method” value in the data set with LK^b cells was “good processing and presentation”. In the data set with LK^b cells (Sephadex G-50 purified new GNP vs old GNP, FIGS. 3C-E), the “presentation from preparations lacking free peptide, flow cytometry” value is recorded as “work just as well as those containing peptide”. Moreover, the “processing and presentation of SIINFEKL from GNP, CTL-based method” value in data set [2] was “good processing and presentation”. In addition, the “presentation from preparations lacking free peptide, B3Z assay” value in data set [2] (Sephadex G-50 purified new GNP vs old GNP, overnight incubation, FIG. 3F) is listed as “confirmed”.
In the case of “GNP 12: gold nanoparticle with GlcC2 ligands and peptide ligand 12, HS—(CH2)10-(CH2OCH2)7-CONH-FLAAYSIINFEKL ({HS‑(CH2)10‑(CH2OCH2)7‑CO}-FLAAYSIINFEKL; also: on gold nanoparticle with GlcC2 ligands)”, the “processing and presentation of SIINFEKL from GNP, flow cytometric method” value with LK^b cells is “good processing and presentation”. For the same substance, in data set [2], the “processing and presentation of SIINFEKL from GNP, CTL-based method” value is “good processing and presentation”.
“NP 4: gold nanoparticle with GlcC2 ligands and peptide ligand 4, FLAAYSIINFEKL-N—(CH2)2-SH (FLAAYSIINFEKL-Cysteamide; also: on gold nanoparticle with GlcC2 ligands)”: in data set [1], the “solubility of aggregates in alkali” value is “total NP solubilisation”, the “aggregation of NP after repeat production” value is reported as “formed aggregates”, the “aggregation of NP after production” value is recorded as “large near complete aggregation” and the solubility of aggregates result is “not soluble”.
Take “NP 3: gold nanoparticle with GlcC2 ligands and peptide ligand 3, FLSIINFEKL-N—(CH2)2-SH (FLSIINFEKL-Cysteamide; also: on gold nanoparticle with GlcC2 ligands)”: in data set [1], the “solubility of aggregates in alkali” value is reported as “total NP solubilisation”, the “aggregation of NP after repeat production” value is “formed aggregates”, the “aggregation of NP after production” value is recorded as “large near complete aggregation” and the solubility of aggregates result is on record as “not soluble”.
As for “SIINFEKL (listed as Gallus gallus) [reference compound]”, the “lowest pulse concentration at which surface SIINFEKL:K^b complexes were detected” value in the data set with LK^b cells (LK^b cells pulsed with free SIINFEKL peptide, unpulsed cells as background) stood at 5 ng/mL. In addition, the limit of detection result in data set [2] (LK^b cells pulsed with free SIINFEKL peptide, co-incubated with B3Z overnight, luminescent substrate) is listed as “approximately 5 ng/mL”.
